According to the nanobody polyreactivity screen of Harvey et al. (2022):

Assay: yeast display, Sf9 membrane polyspecificity reagent, FACS + sequencing; frameworks hold sequencing errors
In short: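 In a synthetic yeast display library (Saccharomyces cerevisiae BJ5465), nanobody expression was induced with galactose for 36–48 hours. FACS gates were set low and high (top ~1%) using anti-HA fluorescence for expression and streptavidin fluorescence for binding of the Sf9 membrane reagent. Each polyreactivity label is drawn from the gate of origin.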

Sequence | polyreactivity (PSR sort gate)
QDQLVESGGGLVQAGGSLRLSCAASGSIFRTYAMGWYRQAPGKERELVATITYSDGNTYYADSVKGRFTISRDNAKNTVYLQMNSLKPEDTAFYYSNADGIYASISGYRYDYWGQGTLVTVSS | low polyreactivity
QVQLVESGGGLVQAGGSLRLSCAASGRTFRVYSMGWYRQAPGKERDFVAAITDSGGRTYYADSVKGRFTISRDNAKNTVYLQMNCLKPEDTAVYYCNAYQYYERYDTYLFRYDYWGQGTQVTVSS | low polyreactivity
QVQLVESGGGLVQAGGSLRISCAASGRTFYWYAMGWYRQAPGKERELVAAISAGGGRTYCADSVKGRFTISRDNAKNTVYLQMNSLKPEDTAVYYCAADFQRGAKYTYDFWGQGTQVTVSS | high polyreactivity
QVQLVESGGGLVQAGGSLRLSCAASGSTFVNNAMGWYRQAPGKERELVASITQSGGSTFYADSVKGRFTISRDNAKNTVYLQMNSLKPEDTAVYYWGQGTQVTVSS | low polyreactivity
QVQLVESGGGLVQAGGSIRLSCAASGFIFYYNPMGWSRQEPGIERELVADITSGRSTYYADSVKGRFTISRDNAKISVYLQLNSLKPEDTAVIYCAVDYDQFGSDEELPPGSDYWGQGTQVTVSS | low polyreactivity
QFQLVESGGGLVQAGGSLRLSCAASGSIIWWNAMGWYRQAPGKERELVASIGDSTYYADSVKGRFTISRDNAKNTVYLQMNSLKPEDTAVYYCNAEVLNYLVFGYQLGYDYWGQGTQVTVSS | low polyreactivity
QVQLVESGRGLVQAGGSLRISCAASGRTFRHNVMGWYRQAAGQERELVAAITWGDASTYYADSVKGRFTISRDNAKNTVYLQMNSLKPEDTAVYYCAASDYRRSYDYWGQGTQVTVSW | low polyreactivity
QVQLVESGGGLVQAGGSLRLSCAASGSIFHYYGMGWYRQAPGKERELVAAISRGGSTNYADSVKGRFTISRDNAKNTVYLQMNSLKPEDTAVYYCNARTYRKAYSGYNYWGQGTQVTVSS | high polyreactivity
QVQLVESGGGLVQAGGSLRLSCAASGSIFSYYAMGWYRQAPGKERELVAAIRRGGSTNYADSVKGRFTNSRDNAKNTVYLQMNSLKPEDTAVYYCAASLGWRFYYWGQGSQVTVSS | high polyreactivity
QVQLVESGAGLVQAGGSLRLSCAASGFIFRYYAMGWYRQAPGKERELVARITPRGGRTYYADSVKGRFTISRDNAKNTVYLQMNSLKPEDTAVYYFAAVYPVLHEFGYWGQGTQVTVSS | high polyreactivity
QVQLVESGGGLVQAGGSLRLSCAASGNIFLFYVMGWYRQAPGKERELVAAITLSGTNTYYADSVKGRFTISRDNAKNTVYLQMNSLKPEDTAVYYCNADWWSDGYDYWGQGTQVTVSS | low polyreactivity
QDQHVESGGGLVQAGGSLRLSGAASGRTVGWYAMGWYRQAHGKVRELVAAITSSVDSTYYADSVKGRFTISRDNAKNTVYLLMNRLKPEDTAVYYCAADYDDGFYLYDYWGQGTQVTVSS | low polyreactivity
QVQLVESGGGLVQAGGSLRLSCAASGFTFSYYAMGWYRQAPGKERELVASISRSGNTYYADSVKGRFTISRDNAKNTVYLQMNSLKPEDTAVYYCNARRHYRRYSYRHNYWGQGTQVTVSS | high polyreactivity
QVQLVESGGGLVQAGGSLRLSCAASGSTFVYYAMGWYRQAPGKERELVASITGGGRTNYADSVKGRFTISRENAKNNVYLQMNSLKPEDTAVYYCAKDHASYYYWPSVLPYDHWGQGSQVTVSS | low polyreactivity
QVQLVESGGGLVQAGGSLRLSCAASGSIFYFNAMGWYRQAPGKERQLVAAITSGGNTYYADSVKGRFTISRDNAKNTVYLQMNSLKPEDTAVYYCAKRGFRFPYPSLDYWGQGTQVTVSS | low polyreactivity
QVQLVESGGGLVHAGGSLRLSCAASGSIYIFNAMGWYRQAPGKEREFVARIRRDSSTYYADSVKGRFTISRDNAKNTVYLQMNSLKPEDTAVYYCAAKRVYRRVELNSWGQGTQVTVSS | low polyreactivity

Sequence | polyreactivity (PSR sort gate)
QVQLVESGGGLVQAGGSLRLSCAASGRTFPYYAMGWYRQAPGKEREFVAGISRTGGSTYYADSVKGRFTISRDNAKNTVYLQMNSLKPEDTAVYYCNAPYILTQQGGRRYDYWGQGTQVTVSS | high polyreactivity
QVQLVESGGGLVQAGGSLRLSCAASGSIFTPYAMGWYRQAPGKERELVAAISRSGGSTFYADSVKGRFTISRDNAKNSFYLQMNSLKPEDTAVYYFAVVASRSHTETPEYDYWGQGTQVTVSS | low polyreactivity
QVQLVESGGGLVQAGGSLRLSCAASGSTFDRYAMGWYRQAPGKERELVAAISHSGGRTYYADSVKGRFTISRDNAKNTVYLQMNSLKPEDTAVYYCAAKSRSGTEAAYGYWGQGTQVTVSS | low polyreactivity
QVQLVESGGGLVQAGGSLRLSCAASGSTFPYNARGWYRQAPGKERELVAAINSNGGSTYYADSVKGRFTISRDNAKNTVYLQMNSLKPEDTAVYYCAAGFYYRPFYGSSHSYGYWGQGTQVTVSS | low polyreactivity
QVQLVESGRGLVQAGGSLRLSCAASGSILSINGMGWYRQAPGKERELVATIDGSDGSTFYADSVKGRFTISRDNAKNSVYLQMNSQKPEDTAVYYCAAENFWQTKEYDYWGQGTQVTVRS | low polyreactivity
QVQLVESGGGLVQAGGSLRLSCASSGSTFGPNDMGWYRQAPGKERELVAAISRSGDDTYYADSVKGRFTISRDNAKNTVYLQMNSLKPEDTAVYYCNADGRPFFLRPLRWELDYWGQGTQVTVSS | low polyreactivity
QVHLVESGGGLVQAGGSLRISCAASGIIFYTYARGWYRQAPGKERELVAAISRSGGSTYYADSVKGRFTISRDNAKYTVYLQMNSRKPEDTAVDYCAADSTYRSTIQDYYWGQGTQVSVSS | high polyreactivity
QVQLVESGGGLVQAGGSLRLSCAASGSTFYVNVMGWYRQAPGKERELVAGITIRDGSTYYADSVKGRFTISRDNAKNTVYLQMNSLKPEDTAVYYCARAGDGEYKRDYWGQGTQVTVSS | low polyreactivity
QVQLVESGGGLVQAVGSLRLSCAASGLIFDANAMGWYRQAPGKERELVAAISNGDSTYYADSVKGRLTISRDNAKNTVYLQMNSLKPEDTAVYYCNARIIYRKWLFRSGTFNYWGQGTQVTVSS | low polyreactivity
QVQLEESGGGLVQAGGSLRLSCAASGSIFALYTIGWSRQAPRKERELVAAISSRGGSTYYADSVKGRFTISRDNAKNTVYLQMNSLKPEDTAVYYCNAVVRESAYNFDYWGQGTQVTVSS | high polyreactivity
QVQLVESGGGLVQAGGSLRLSCAASGSIFYRYAMGWYRQAPGKERELVATISLSGGSTYADSVKGRFTISRDNAKNTVYLQMNSLKPEDTAVYYCAAGGQYYIIRYDYWGQGTQVTVSS | low polyreactivity
QVQLVESGGGLVQAGGSLPLSCAASGSIFGTYAMGWYRQAPGKERELVAAITTSAGSTYYADSVKGRFTISRDNAKNTVYLQMKSLKPEDTAVYYCAARFRRGITYEYWGQGTQVTVSS | high polyreactivity
QVQLVESGGGLVQAGGSLRLSCAASGHTYRYYAMGWYRQAPGKERELVAAITGGGGSTYYADSVKGRFTISRDNAKNTVYLQMNSLKPEDTAVYYCATGGVSGIVGGDYWGQGTQVTVSS | low polyreactivity
QVQLVESGGGLVQAGGSLRLSCAASGRTFTQNAMGWYRQATGKERELVASISSSGSTYADSVKGRFTISRDNAKNTVYLQMISLKPEDTAVNYCNAVGFQANDYNYWGQGTQVTVSS | low polyreactivity
QVHLVESGGGLVQAGGSLRLTCAASGRTFGWNVMGWYRQAPGKERELVAAISGSGGSTYYADSVKGRFTISRDNAKNTVYLQMNSLKPEDTAVYYCAALYGPGREYDYWGQGTQVTVSS | low polyreactivity
QVQLVESGGGLVQAGGSLRLSCAASGRIFYYTMVWYRQAPGKERELVAAISWSGGSTYYADSVKGRFTISRDNAKNTVYLQMNSLKPEDTAVYYCATRSRRLYHYDYWGQGTQVTVSS | high polyreactivity
